In publication doi:10.1101/590430 (bioRxiv, 2019):

Target: P. luminescens TcdA1 (TcA) (P. luminescens, UniProt Q9RN43 1-2516)
Assay: cryo-EM structure

B1: TcdB2 (TcB), as the TcB part of the TcdB2-TccC3 fusion protein (natural protein)
chain: MQNSQDFSITELSLPKGGGAITGMGEALTPTGPDGMAALSLPLPISAGRGYAPAFTLNYNSGAGNSPFGLGWDCNVMTIRRRTHFGVPHYDETDTFLGPEGEVLVVADQPRDESTLQGINLGATFTVTGYRSRLESHFSRLEYWQPKTTGKTDFWLIYSPDGQVHLLGKSPQARISNPSQTTQTAQWLLEASVSSRGEQIYYQYRAEDDTGCEADEITHHLQATAQRYLHIVYYGNRTASETLPGLDGSAPSQADWLFYLVFDYGERSNNLKTPPAFSTTGSWLCRQDRFSRYEYGFEIRTRRLCRQVLMYHHLQALDSKITEHNGPTLVSRLILNYDESAIASTLVFVRRVGHEQDGNVVTLPPLELAYQDFSPRHHAHWQPMDVLANFNAIQRWQLVDLKGEGLPGLLYQDKGAWWYRSAQRLGEIGSDAVTWEKMQPLSVIPSLQSNASLVDINGDGQLDWVITGPGLRGYHSQRPDGSWTRFTPLNALPVEYTHPRAQLADLMGAGLSDLVLIGPKSVRLYANTRDGFAKGKDVVQSGDITLPVPGADPRKLVAFSDVLGSGQAHLVEVSATKVTCWPNLGRGRFGQPITLPGFSQPATEFNPAQVYLADLDGSGPTDLIYVHTNRLDIFLNKSGNGFAEPVTLRFPEGLRFDHTCQLQMADVQGLGVASLILSVPHMSPHHWRCDLTNMKPWLLNEMNNNMGVHHTLRYRSSSQFWLDEKAAALTTGQTPVCYLPFPIHTLWQTETEDEISGNKLVTTLRYARGAWDGREREFRGFGYVEQTDSHQLAQGNAPERTPPALTKNWYATGLPVIDNALSTEYWRDDQAFAGFSPRFTTWQDNKDVPLTPEDDNSRYWFNRALKGQLLRSELYGLDDSTNKHVPYTVTEFRSQVRRLQHTDSRYPVLWSSVVESRNYHYERIASDPQCSQNITLSSDRFGQPLKQLSVQYPRRQQPAINLYPDTLPDKLLANSYDDQQRQLRLTYQQSSWHHLTNNTVRVLGLPDSTRSDIFTYGAENVPAGGLNLELLSDKNSLIADDKPREYLGQQKTAYTDGQNTTPLQTPTRQALIAFTETTVFNQSTLSAFNGSIPSDKLSTTLEQAGYQQTNYLFPRTGEDKVWVAHHGYTDYGTAAQFWRPQKQSNTQLTGKITLIWDANYCVVVQTRDAAGLTTSAKYDWRFLTPVQLTDINDNQHLITLDALGRPITLRFWGTENGKMTGYSSPEKASFSPPSDVNAAIELKKPLPVAQCQVYAPESWMPVLSQKTFNRLAEQDWQKLYNARIITEDGRICTLAYRRWVQSQKAIPQLISLLNNGPRLPPHSLTLTTDRYDHDPEQQIRQQVVFSDGFGRLLQAAARHEAGMARQRNEDGSLIINVQHTENRWAVTGRTEYDNKGQPIRTYQPYFLNDWRYVSNDSARQEKEAYADTHVYDPIGREIKVITAKGWFRRTLFTPWFTVNEDENDTAAEVKKVKM
binding result: binds
